T1: human FcγRIIb extracellular domain with C-terminal His-tag (human, UniProt P31994 43-217)
T1 construct: also called human FcgRIIb; not shown: His-tag added to C-terminus
T1 sequence: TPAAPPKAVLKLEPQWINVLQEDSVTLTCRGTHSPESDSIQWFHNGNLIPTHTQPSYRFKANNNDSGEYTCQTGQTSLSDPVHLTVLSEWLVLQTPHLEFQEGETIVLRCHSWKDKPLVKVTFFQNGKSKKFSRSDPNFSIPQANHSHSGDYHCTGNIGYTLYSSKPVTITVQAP

T2: cynomolgus monkey FcγRIIa3 extracellular domain with C-terminal His-tag (cynomolgus monkey)
T2 construct: also called cyno FcgRIIa3; cynoFcγRIIa3; not shown: His-tag added to C-terminus
T2 chain: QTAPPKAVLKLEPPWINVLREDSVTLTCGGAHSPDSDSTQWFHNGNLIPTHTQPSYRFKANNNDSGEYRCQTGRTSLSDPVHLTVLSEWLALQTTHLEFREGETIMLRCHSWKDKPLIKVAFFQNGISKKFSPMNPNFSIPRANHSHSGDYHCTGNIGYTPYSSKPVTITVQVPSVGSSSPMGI

T3: cynomolgus monkey FcγRIIa1 extracellular domain, His-tagged (cynomolgus monkey)
T3 construct: also called cyno FcgRIIa1
T3 chain: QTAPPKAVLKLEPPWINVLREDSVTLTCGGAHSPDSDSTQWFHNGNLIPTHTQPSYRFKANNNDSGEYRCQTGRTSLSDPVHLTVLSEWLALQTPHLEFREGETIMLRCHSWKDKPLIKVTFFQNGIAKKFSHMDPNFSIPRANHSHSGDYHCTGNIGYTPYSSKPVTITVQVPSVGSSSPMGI

T4: cynomolgus monkey FcγRIIa3 extracellular domain, His-tagged (cynomolgus monkey)
T4 construct: also called cyno FcgRIIa3
T4 chain: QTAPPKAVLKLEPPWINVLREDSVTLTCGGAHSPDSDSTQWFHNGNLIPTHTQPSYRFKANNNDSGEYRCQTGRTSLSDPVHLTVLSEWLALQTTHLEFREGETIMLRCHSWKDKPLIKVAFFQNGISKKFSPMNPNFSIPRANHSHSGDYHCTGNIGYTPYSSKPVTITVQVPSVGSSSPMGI

T5: cynomolgus monkey FcγRIIa2 extracellular domain, His-tagged (cynomolgus monkey)
T5 construct: also called cyno FcgRIIa2
T5 chain: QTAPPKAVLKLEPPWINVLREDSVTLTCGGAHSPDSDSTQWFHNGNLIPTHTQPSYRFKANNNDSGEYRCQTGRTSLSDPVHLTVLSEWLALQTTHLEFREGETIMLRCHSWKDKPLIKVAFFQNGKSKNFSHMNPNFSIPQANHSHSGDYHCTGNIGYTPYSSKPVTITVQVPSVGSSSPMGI

T6: cynomolgus monkey FcγRIIIaS extracellular domain, His-tagged (cynomolgus monkey, UniProt Q8SPW2 21-206 at identity 1.00))
T6 construct: also called cyno FcgRIIIaS
T6 chain: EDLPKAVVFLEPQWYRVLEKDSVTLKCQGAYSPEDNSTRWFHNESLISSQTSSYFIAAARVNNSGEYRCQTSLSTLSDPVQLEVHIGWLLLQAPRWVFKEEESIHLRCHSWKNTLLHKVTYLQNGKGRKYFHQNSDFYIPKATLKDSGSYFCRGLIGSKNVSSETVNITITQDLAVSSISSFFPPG

T7: cynomolgus monkey FcγRIIb extracellular domain, His-tagged (cynomolgus monkey)
T7 construct: also called cyno FcgRIIb
T7 chain: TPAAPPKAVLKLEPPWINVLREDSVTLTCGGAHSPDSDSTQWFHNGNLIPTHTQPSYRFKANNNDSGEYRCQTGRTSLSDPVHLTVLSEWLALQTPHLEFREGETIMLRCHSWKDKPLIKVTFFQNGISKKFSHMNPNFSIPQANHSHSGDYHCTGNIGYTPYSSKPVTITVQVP

T8: human FcγRIIaH extracellular domain, His-tagged (human, UniProt P12318 34-217)
T8 construct: also called human FcgRIIaH; FcγRIIa type H
T8 sequence: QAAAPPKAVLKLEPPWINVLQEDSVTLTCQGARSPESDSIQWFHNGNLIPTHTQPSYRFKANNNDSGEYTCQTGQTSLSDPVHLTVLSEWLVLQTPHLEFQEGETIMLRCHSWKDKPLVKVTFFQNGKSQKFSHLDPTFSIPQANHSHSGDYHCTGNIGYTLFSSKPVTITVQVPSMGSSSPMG


How the values were obtained:
[1] = molecular target: T1, human FcγRIIb extracellular domain with …; experiment: SPR Biacore, antibody captured, FcgR analyte
Procedure: (§1) The kinetic analysis of interactions between these antibodies and FcγR was carried out using BIACORE® T200 or BIACORE® 4000 (GE Healthcare). HBS-EP+ (GE Healthcare) was used as the running buffer, and the measurement temperature was set to 25° C. […] After the measurement, the antibody captured on the chip was washed off by allowing reaction with 10 mM glycine-HCl, pH1.5 and 25 mM NaOH so that the chip was regenerated and used repeatedly. The sensorgrams obtained as measurement results were analyzed by the 1:1 Langmuir binding model using the BIACORE® Evaluation Software to calculate the binding rate constant ka (L/mol/s) and dissociation rate constant kd (1/s), and the dissociation constant KD (mol/L) was calculated from these values. […] Regarding such interactions, KD values were calculated using the following 1:1 binding model described in BIACORE® T100 Software Handbook BR1006-48 Edition AE.

[2] = molecular target: T2, cynomolgus monkey FcγRIIa3 …; experiment: SPR Biacore, antibody captured, FcgR analyte
Procedure: as §1

[3] = molecular target: T9, cynomolgus monkey FcγRIIIaS extracellular domain with C-terminal His-tag (cynomolgus monkey, UniProt A3RFZ7 21-206 (rhesus entry)); experiment: SPR Biacore, antibody captured, FcgR analyte
T9 construct: also called cyno FcgRIIIaS; cynoFcγRIIIaS; not shown: His-tag added to C-terminus
Procedure: as §1

[4] = molecular target: T3, cynomolgus monkey FcγRIIa1 …; experiment: SPR (Biacore), 25C, FcgR bound per antibody captured
Procedure: (§2) In the next step, cross-reactivity of these substitutions to cynoFcγRs was evaluated.
(§3) The value of the amount of FcγR binding was obtained by dividing the amount of FcγR bound by the amount of each antibody captured.

[5] = molecular target: T4, cynomolgus monkey FcγRIIa3 …; experiment: as above
Procedure: as §2, §3

[6] = molecular target: T5, cynomolgus monkey FcγRIIa2 …; experiment: as above
Procedure: as §2, §3

[7] = molecular target: T6, cynomolgus monkey FcγRIIIaS …; experiment: as above
Procedure: as §2, §3

[8] = molecular target: T7, cynomolgus monkey FcγRIIb extracellular …; experiment: as above
Procedure: as §2, §3

[9] = molecular target: T10, human FcγRIIIaV extracellular domain, His-tagged (human, UniProt P08637 17-208); experiment: as above
T10 construct: also called human FcgRIIIaV
T10 sequence (P08637 17-208 F176V): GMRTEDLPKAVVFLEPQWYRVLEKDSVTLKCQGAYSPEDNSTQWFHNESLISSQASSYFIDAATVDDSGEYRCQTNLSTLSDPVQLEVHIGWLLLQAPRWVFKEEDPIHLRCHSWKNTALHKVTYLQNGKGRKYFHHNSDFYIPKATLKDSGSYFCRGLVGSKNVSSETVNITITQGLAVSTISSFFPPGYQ

[10] = molecular target: T8, human FcγRIIaH extracellular domain, …; experiment: as above

Binder | Kd [1] [µM] | KD fold (SG1 = 1) [2] [fold] | KD fold (SG1 = 1) [3] [fold] | Kd [3] [µM] | Binding to cynoFcgRs (SG1 = 100) [4] | Binding to cynoFcgRs (SG1 = 100) [5] | Binding to cynoFcgRs (SG1 = 100) [6] | Binding to cynoFcgRs (SG1 = 100) [7] | Binding to cynoFcgRs (SG1 = 100) [8] | Binding to human FcgRs (parent B3 = 100) [9] | Binding to human FcgRs (parent B3 = 100) [10]
M103205H795-MY181/M103202L889-SK1 (antibody, human IgG1, kappa, name in EU numbering, EU numbering) heavy: QVTLKESGPVLVKPTETLTLTCTVSGIDLSHDDISWVRQAPGKGLEWVGIISYAGSTYYASWAKGRLTISKDTSKNQVVLTMTNMDPVDTATYYCARGVPAYSHGGDLWGQGTLVTVSSASTKGPSVFPLAPSSKSTSGGTAALGCLVKDYFPEPVTVSWNSGALTSGVHTFPAVLQSSGLYSLSSVVTVPSSSLGTQTYICNVNHKPSNTKVDKKVEPKSCDKTHTCPPCPAPELLNGPSVFLFPPKPKDTLMISRTPEVTCVVVDVSEEDPEVKFNWYVDGVEVHNAKTKPREEQYNSTYRVVSVLTVLHQDWLNGKEYKCKVSNKALPAPIEKTISKAKGQPREPQVYTLPPSREEMTKNQVSLTCLVKGFYPSDIAVEWESNGQPENNYKTTPTVLDSDGSFFLYSKLTVDKSRWQQGNVFSCSVMHEALHNHYTQKSLSLSP light: DIVMTQSPATLSLSPGERATLSCTSSQSVYHANWLSWFQQKPGQPPKLLIYWASTLAYGVPSRFSGSGSGTDFTLTISSLQPEDAATYYCAGGYGGGRYAFGQGTKVEIKRTVAAPSVFIFPPSDEQLKSGTASVVCLLNNFYPREAKVQWKVDNALQSGNSQESVTEQDSKDSTYSLSSTLTLSKADYEKHKVYACEVTHQGLSSPVTKSFNRGEC | 1.4 | 1.1 | 0.09 | 4.1 |  |  |  |  |  |  | 
M103205H795-SG178 / M103202L889-SK1 (antibody, human IgG1, kappa, name in EU numbering, also called N325E) heavy: not shown light: DIVMTQSPATLSLSPGERATLSCTSSQSVYHANWLSWFQQKPGQPPKLLIYWASTLAYGVPSRFSGSGSGTDFTLTISSLQPEDAATYYCAGGYGGGRYAFGQGTKVEIKRTVAAPSVFIFPPSDEQLKSGTASVVCLLNNFYPREAKVQWKVDNALQSGNSQESVTEQDSKDSTYSLSSTLTLSKADYEKHKVYACEVTHQGLSSPVTKSFNRGEC |  |  |  |  | 22 | 29 | 21 | 36 | 26 |  | 
M103205H795-SG174 / M103202L889-SK1 (antibody, human IgG1, kappa, name in EU numbering, also called S267H) heavy: not shown light: DIVMTQSPATLSLSPGERATLSCTSSQSVYHANWLSWFQQKPGQPPKLLIYWASTLAYGVPSRFSGSGSGTDFTLTISSLQPEDAATYYCAGGYGGGRYAFGQGTKVEIKRTVAAPSVFIFPPSDEQLKSGTASVVCLLNNFYPREAKVQWKVDNALQSGNSQESVTEQDSKDSTYSLSSTLTLSKADYEKHKVYACEVTHQGLSSPVTKSFNRGEC |  |  |  |  | 13 | 20 | 16 | 15 | 11 |  | 
M103205H795-SG176 / M103202L889-SK1 (antibody, human IgG1, kappa, name in EU numbering, also called N325I) heavy: not shown light: DIVMTQSPATLSLSPGERATLSCTSSQSVYHANWLSWFQQKPGQPPKLLIYWASTLAYGVPSRFSGSGSGTDFTLTISSLQPEDAATYYCAGGYGGGRYAFGQGTKVEIKRTVAAPSVFIFPPSDEQLKSGTASVVCLLNNFYPREAKVQWKVDNALQSGNSQESVTEQDSKDSTYSLSSTLTLSKADYEKHKVYACEVTHQGLSSPVTKSFNRGEC |  |  |  |  | 14 | 19 | 15 | 20 | 16 |  | 
M103205H795-SG177 / M103202L889-SK1 (antibody, human IgG1, kappa, name in EU numbering, also called N325L) heavy: not shown light: DIVMTQSPATLSLSPGERATLSCTSSQSVYHANWLSWFQQKPGQPPKLLIYWASTLAYGVPSRFSGSGSGTDFTLTISSLQPEDAATYYCAGGYGGGRYAFGQGTKVEIKRTVAAPSVFIFPPSDEQLKSGTASVVCLLNNFYPREAKVQWKVDNALQSGNSQESVTEQDSKDSTYSLSSTLTLSKADYEKHKVYACEVTHQGLSSPVTKSFNRGEC |  |  |  |  | 15 | 25 | 15 | 21 | 18 |  | 
M103205H795-SG173 / M103202L889-SK1 (antibody, human IgG1, kappa, name in EU numbering, also called S267L) heavy: not shown light: DIVMTQSPATLSLSPGERATLSCTSSQSVYHANWLSWFQQKPGQPPKLLIYWASTLAYGVPSRFSGSGSGTDFTLTISSLQPEDAATYYCAGGYGGGRYAFGQGTKVEIKRTVAAPSVFIFPPSDEQLKSGTASVVCLLNNFYPREAKVQWKVDNALQSGNSQESVTEQDSKDSTYSLSSTLTLSKADYEKHKVYACEVTHQGLSSPVTKSFNRGEC |  |  |  |  | 13 | 21 | 14 | 24 | 12 |  | 

Now from value to binder:

Kd [1] [µM] | KD fold (SG1 = 1) [2] [fold] | KD fold (SG1 = 1) [3] [fold] | Kd [3] [µM] | Binding to cynoFcgRs (SG1 = 100) [4] | Binding to cynoFcgRs (SG1 = 100) [5] | Binding to cynoFcgRs (SG1 = 100) [6] | Binding to cynoFcgRs (SG1 = 100) [7] | Binding to cynoFcgRs (SG1 = 100) [8] | Binding to human FcgRs (parent B3 = 100) [9] | Binding to human FcgRs (parent B3 = 100) [10] | Binder
 |  |  |  | 19 | 28 | 17 | 48 | 19 |  |  | M103205H795-SG179 / M103202L889-SK1 (antibody, human IgG1, kappa, name in EU numbering, also called A327I) heavy: not shown light: DIVMTQSPATLSLSPGERATLSCTSSQSVYHANWLSWFQQKPGQPPKLLIYWASTLAYGVPSRFSGSGSGTDFTLTISSLQPEDAATYYCAGGYGGGRYAFGQGTKVEIKRTVAAPSVFIFPPSDEQLKSGTASVVCLLNNFYPREAKVQWKVDNALQSGNSQESVTEQDSKDSTYSLSSTLTLSKADYEKHKVYACEVTHQGLSSPVTKSFNRGEC
 |  |  |  |  |  |  |  |  | 0 | 77 | GpH7-B3 G237Y / GpL16-k0 (antibody, human IgG1, kappa, also called B3 variant G237Y) heavy: not shown light: DIVMTQSPLSLPVTPGEPASISCQASESLVHSNRNTYLHWYLQKPGQSPQLLIYKVSNRFSGVPDRFSGSGSGTDFTLKISRVEAEDVGVYYCSQNTHVPPTFGQGTKVEIERTVAAPSVFIFPPSDEQLKSGTASVVCLLNNFYPREAKVQWKVDNALQSGNSQESVTEQDSKDSTYSLSSTLTLSKADYEKHKVYACEVTHQGLSSPVTKSFNRGEC
 |  |  |  |  |  |  |  |  | 1 | 76 | GpH7-B3 N325I / GpL16-k0 (antibody, human IgG1, kappa, also called B3 variant N325I) heavy: not shown light: DIVMTQSPLSLPVTPGEPASISCQASESLVHSNRNTYLHWYLQKPGQSPQLLIYKVSNRFSGVPDRFSGSGSGTDFTLKISRVEAEDVGVYYCSQNTHVPPTFGQGTKVEIERTVAAPSVFIFPPSDEQLKSGTASVVCLLNNFYPREAKVQWKVDNALQSGNSQESVTEQDSKDSTYSLSSTLTLSKADYEKHKVYACEVTHQGLSSPVTKSFNRGEC
